The test system of the series is T1, His6-WblI (Streptomyces lividans TK24), ORF:202723bd.
T1 sequence: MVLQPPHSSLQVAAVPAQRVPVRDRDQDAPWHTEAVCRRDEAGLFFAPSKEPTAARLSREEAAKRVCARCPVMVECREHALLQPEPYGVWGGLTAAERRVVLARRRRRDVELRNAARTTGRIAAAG
As to the kind of experiment: EMSA. The settings on record: 10 mM Tris-HCl pH 7.5, 50 mM KCl, 1 mM DTT, 20 µl, room temperature 15 min, 50 pmol probe, 5% native PAGE in 45 mM Tris-HCl pH 8.3, 45 mM boric acid.

Regarding “AGCCAGTGGCGATAAGGTTCCGTCCGGTCCGGGGCCGTCCTCGGGCAGTAACGCCGACGGCGGGGCCGTGGCCCTGTCCGGCTCGTCGGCTTCAACGGAACTCATGGCGTCCCCCGGGTCCTCGACTATTGGTCCACGAACGACCACCGTTCTACAATGGAACGGTGGTCGCGTCAAGAAACGGTGGCCCGTTCATGCCATACGATGAGGAGCACGTGTCGCTTATCGCCACTGGCT (double strand) [actII-1/actII-2 intergenic region]”, the binding entry is given as “binds”.

These data come from paper PMC5373594.
